# Patent US20120316071A1 (published 2012)
# T1: rHuman Erythropoietin R/Fc Chimera, CF (R&D Systems Cat#963-ER) (human, UniProt P19235 25-250)
# T1 construct: Bought from R&D Systems; also called EPO R/Fc; Epo R/Fc chimera; not shown: Fc of the bought chimera
# T1 sequence (looked up): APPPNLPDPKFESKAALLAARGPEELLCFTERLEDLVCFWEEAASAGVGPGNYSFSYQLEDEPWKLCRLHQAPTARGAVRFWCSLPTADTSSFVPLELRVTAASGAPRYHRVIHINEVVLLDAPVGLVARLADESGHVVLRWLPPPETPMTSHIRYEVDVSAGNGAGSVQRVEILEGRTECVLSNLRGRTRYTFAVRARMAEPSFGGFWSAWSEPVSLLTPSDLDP
# B1: Fab VH1-46_IGHD3-10*01_IGHJ4*01 & B3_IGKJ1*01 (Fab, V domains shown)
# VH: QVQLVQSGAEVKKPGASVKVSCKASGYTFTSYYMHWVRQAPGQGLEWMGIINPSGGSTSYAQKFQGRVTMTRDTSTSTVYMELSSLRSEDTAVYYCAREYYYGSGSYYNDYFDYWGQGTLVTVSS
# VL: not shown
# notes: Tested as a Fab made in E. coli; VH was cloned into Plasmid A (CH1 constant region, His6 and Flag tags); The kappa VL was cloned into Plasmid C (kappa CL)
# B2: Fab VH1-46_IGHD3-10*01_IGHJ4*01 & O1_IGKJ1*01 (Fab, V domains shown)
# VH: B1 VH
# VL: DIVMTQTPLSLPVTPGEPASISCRSSQSLLDSDDGNTYLDWYLQKPGQSPQLLIYTLSYRASGVPDRFSGSGSGTDFTLKISRVEAEDVGVYYCMQRIEFPSWTFGQGTKVEIKR
# notes: Germline library Fab expressed in E. coli; VH was cloned into Plasmid A (CH1 constant region, His6 and Flag tags); The kappa VL was cloned into Plasmid C (kappa CL)
# B3: Fab VH1-46_IGHD6-6*01_IGHJ1*01 S102A/S103P/S104F (APF) & L6_IGKJ1*01 (Fab, V domains shown)
# VH: QVQLVQSGAEVKKPGASVKVSCKASGYTFTSYYMHWVRQAPGQGLEWMGIINPSGGSTSYAQKFQGRVTMTRDTSTSTVYMELSSLRSEDTAVYYCAREEYAPFSAEYFQHWGQGTLVTVSS
# VL: not shown
# notes: Tested as a Fab made in E. coli: VH cloned in Plasmid A (CH1 constant region, His6 and Flag tags), VL in Plasmid C (kappa constant region); also called H:APF & L:wt; APF triple mutant
# Tests used:
# [1] = molecular target: T2, rHuman Notch-1/Fc Chimera, CF (R&D Systems Cat#3647-TK) (human, UniProt P46531 19-526); assay: MSD multispot ECL, antigen spotted on plate, Fab 705 nM; blank spot 483
# T2 construct: Bought from R&D Systems; not shown: Fc of the bought chimera
# [2] = molecular target: T3, Recombinant Human DLL4 (R&D Systems Cat#1506-D4/CF) (human, UniProt Q9NR61 27-524); assay: as above
# T3 construct: Bought from R&D Systems; also called rHuman DLL4; delta-like protein 4
# [3] = molecular target: T4, rHuman CD44/Fc Chimera, CF (R&D Systems Cat#3660-CD) (human, UniProt P16070 21-220); assay: as above
# T4 construct: Bought from R&D Systems; not shown: Fc of the bought chimera
# [4] = molecular target: T5, rHuman HGF R/c-MET/Fc Chimera, CF (R&D Systems Cat#358-MT/CF) (human, UniProt P08581 25-932); assay: as above
# T5 construct: Bought from R&D Systems; also called HGF R/Fc; hepatocyte growth factor receptor (HGF R/c-Met); not shown: Fc of the bought chimera
# [5] = molecular target: T1, rHuman Erythropoietin R/Fc Chimera, CF …; assay: as above
# [6] = molecular target: T6, rHuman P-Cadherin/Fc Chimera, CF (R&D Systems Cat#861-PC) (human, UniProt P22223 108-654); assay: as above
# T6 construct: Bought from R&D Systems; not shown: Fc of the bought chimera
# [7] = molecular target: T7, rHuman ErbB2/Fc Chimera, CF (R&D Systems Cat#1129-ER) (human, UniProt P04626 23-652); assay: as above
# T7 construct: Bought from R&D Systems; also called human epidermal growth factor 2 receptor (ErbB2); not shown: Fc of the bought chimera
# [8] = molecular target: T8, rHuman EGF R/Fc Chimera, CF (R&D Systems Cat#344-ER) (human, UniProt P00533 25-645); assay: as above
# T8 construct: Bought from R&D Systems; also called epidermal growth factor receptor (EGF R); not shown: Fc of the bought chimera
# [9] = molecular target: T9, rHuman IGF-1 sR, (IGF-1 sR), CF (R&D Systems Cat#391-GR) (human, UniProt P08069 31-932); assay: as above
# T9 construct: Bought from R&D Systems and called a soluble receptor; also called insulin-like growth factor-1 soluble receptor
# [10] = molecular target: T10, rHuman Notch-1/Fc Chimera, CF (R&D Systems Cat#3647-TK) (human, UniProt P46531 19-526); assay: Multispot ECL (MSD) titration; antigen spotted on plate; Fab 98.1 nM; blank spot 210
# T10 construct: Bought Fc chimera; Fc part of the bought chimera not given
# [11] = molecular target: T11, rHuman ErbB2/Fc Chimera, CF (R&D Systems Cat#1129-ER) (human, UniProt P04626 23-652); assay: as above
# T11 construct: Bought Fc chimera; also called human epidermal growth factor 2 receptor; Fc part of the bought chimera not given
# [12] = molecular target: T12, rHuman HGF R/c-MET/Fc Chimera, CF (R&D Systems Cat#358-MT/CF) (human, UniProt P08581 25-932); assay: as above
# T12 construct: Bought Fc chimera; also called HGF R/Fc; hepatocyte growth factor receptor; Fc part of the bought chimera not given
# [13] = molecular target: T13, rHuman CD44/Fc Chimera, CF (R&D Systems Cat#3660-CD) (human, UniProt P16070 21-220); assay: as above
# T13 construct: Bought Fc chimera; Fc part of the bought chimera not given
# [14] = molecular target: T14, rHuman P-Cadherin/Fc Chimera, CF (R&D Systems Cat#861-PC) (human, UniProt P22223 108-654); assay: as above
# T14 construct: Bought Fc chimera; Fc part of the bought chimera not given
# [15] = molecular target: T15, Recombinant Human DLL4 (R&D Systems Cat#1506-D4/CF) (human, UniProt Q9NR61 27-529); assay: ECL Multispot (MSD), antigen spotted; Fab 50 (µM); blank 386
# T15 construct: Bought recombinant protein; also called delta-like protein 4; rHuman DLL4
# [16] = molecular target: T16, rHuman ErbB2/Fc Chimera, CF (R&D Systems Cat#1129-ER) (human, UniProt P04626 23-652); assay: as above
# T16 construct: Bought recombinant protein; Fc part of the bought chimera not given
# [17] = molecular target: T17, rHuman EGF R/Fc Chimera, CF (R&D Systems Cat#344-ER) (human, UniProt P00533 25-645); assay: as above
# T17 construct: Bought recombinant protein; Fc part of the bought chimera not given
# [18] = molecular target: T18, rHuman P-Cadherin/Fc Chimera, CF (R&D Systems Cat#861-PC) (human, UniProt P22223 108-654); assay: as above
# T18 construct: Bought recombinant protein; Fc part of the bought chimera not given
binder,measurement,setting,value
B1,ECL signal,[1],958
same,ECL signal,[2],981
same,ECL signal,[3],693
same,ECL signal,[4],839
same,ECL signal,[5],4890
same,ECL signal,[6],827
same,ECL signal,[7],671
same,ECL signal,[8],692
same,ECL signal,[9],630
B2,ECL signal,[10],313
same,ECL signal,[11],247
same,ECL signal,[12],335
same,ECL signal,[13],265
same,ECL signal,[14],347
B3,ECL signal,[15],80000
same,ECL signal,[16],672
same,ECL signal,[17],585
same,ECL signal,[18],652
